This is an account of results in publication PMC3347535, “D-Arabinose Methabolism: Characterization of Bifunctional Arabinokinase/Pyrophosphorylase of Leishmania major” (Acta Naturae, 2009).

The subject of this data set is O=P(O)(O)OC1OC[C@@H](O)[C@@H](O)[C@@H]1O. Kind of data set: purified protein. The note with it: GDP-D-Arap pyrophosphorylase reaction; GTP co-substrate; exogenous arabinose phosphate; kinetic assay conditions not given.

As usually defined, the Km is the substrate concentration at which the rate is half of its maximum. Consider LmjF16.0480 (Leishmania major), for which the Km is on record as 67.0 mM.
